The text below walks through data of patent publication US20260191907A1 (INSTITUT CURIE, published 2026).

Test [1] deals with T1, Recombinant FGFR3 (G&P Biosciences) (UniProt P22607 23-375, limits assumed).
T1 construct: Immobilised on the SPR chip
T1 sequence (looked up): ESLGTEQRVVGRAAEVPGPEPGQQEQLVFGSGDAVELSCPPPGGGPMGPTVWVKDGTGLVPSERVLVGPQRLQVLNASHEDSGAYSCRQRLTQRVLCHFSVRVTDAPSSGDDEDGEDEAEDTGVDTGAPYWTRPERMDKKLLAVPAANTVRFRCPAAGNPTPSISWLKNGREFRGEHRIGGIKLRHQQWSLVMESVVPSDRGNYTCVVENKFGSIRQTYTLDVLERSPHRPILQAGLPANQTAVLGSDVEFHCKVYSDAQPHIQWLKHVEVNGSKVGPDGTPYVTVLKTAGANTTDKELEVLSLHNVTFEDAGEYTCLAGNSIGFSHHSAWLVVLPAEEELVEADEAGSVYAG
Description: SPR, FGFR3 immobilised, nanobody as analyte at five concentrations. As to the method: (§1) Single cycle kinetics analysis was performed with the BIAcore® T200 instrument (GE Healthcare) on CMD200M sensor chips (XanTec bioanalytics GmbH) activated with a mixture of 300 mM NHS (N-hydroxysuccinimide) and 50 mM EDC (N-ethyl-N′-(dimethylaminopropyl) carbodiimide). Recombinant FGFR1, FGFR2, FGFR3 and FGFR4 (G&P Biosciences) were immobilized on the activated biosensors (800 to 12′000 RU; 1 RU=1 pg/mm²) followed by a blocking step with 1M ethanolamine. One flow channel per chip was used as a reference to provide background corrections. The nanobodies were injected at 5 different concentrations followed by a dissociation phase. Koff-rates were determined from a final dissociation step after the last injection. The measurements with FGFR4 were performed for each nanobody on freshly immobilized protein due to strong binding and incomplete dissociation from the surface. Immobilization flow rate was 5 μl/min and binding studies were performed at 30 μl/min. Binding parameters were determined with the heterogeneous ligand model fit of the BIAevaluation software. The black curves represent the measured data and red curves show the performed fit analysis.
To determine the binding affinity of the nanobodies to FGFR4, we performed surface plasmon resonance (SPR) spectroscopy with recombinant FGFR4. As already mentioned above, FGFR1 and FGFR2 are expressed on Rh4-FR4ko cells and flow cytometry analysis indicated no binding of the nanobodies to the cells. To further confirm FGFR4-specificity, we included also affinity measurements with recombinant FGFR1, FGFR2 and FGFR3. Nanobodies A8, B1, B5, F8, and mCh were injected in five different concentrations on a FGFR coated chip. Except for the negative control mCh, calculated KD values for FGFR4 binding were in the nano- and picomolar range (FIG. 3; Table 2). Affinity parameters could not be fitted with a 1:1 binding model and best fits were obtained with the heterogeneous ligand model of the BIAevaluation software resulting in two KD values for each candidate.

Test [2] deals with T2, FGFR4 expressed on the surface of RMS cells (Rh4-FR4 wt, Rh30) (human, UniProt P22455 22-802).
T2 construct: Endogenous FGFR4 of the rhabdomyosarcoma cell lines; The whole entry includes the signal peptide; also called cell-surface FGFR4; Rh4-FR4 wt cells
Description: flow cytometry, recombinant nanobody at 30 µg/ml on Rh4-FR4 wt cells, anti-6xHis-FITC detection. As to the method: Control cells (C) were either not stimulated or stimulated with FGF19 in absence of the nanobodies. The cell lysates were analysed by western blot with anti phospho ERK1/2 antibody. Total Erk1/2 levels are shown as loading control.
Binding validation of selected phages, recombinant nanobodies and decorated liposomes was performed on Rh4-FR4 wt and Rh4-FR4ko cells. Specificity of selected phage clones binding to FGFR4 was determined by flow cytometry in 96-well plates (Becton Dickinson). Cell surface staining of Rh4-FR4 wt or Rh4-FR4ko cells was performed on ice in PBS supplemented with 1% FBS. 80 μL phages+20 μL PBS/1% milk were incubated on 1×10⁵ cells for 1 h on ice. […] Samples were analyzed after two washes by flow cytometry on a MACSQuant® cytometer (Miltenyi) and results were analyzed with FlowJo™ software (BD Biosciences, France). Phages displaying anti-mCherry nanobodies were used as negative control²⁴ and as positive control we used an anti-FGFR4 antibody (BT53, kindly provided by J. Khan lab, NCI, Bethesda, MD). For binding test of recombinant nanobodies, cells were detached with Accutase® (Stemcell Technologies) and washed with PBS. All following steps were performed on ice: 4×10⁵ cells were incubated with nanobody concentrations of 30 μg/ml for 1 h, washed once with PBS and incubated for an additional 30 min with anti His-tag FITC labeled antibody (LS-C57341, LSBioscience, diluted 1:10). The cells were washed once more with PBS and analyzed. Targeting liposomes were added at 0.5 mM final lipid concentration to cells in 96-well plates and incubated for 2 h at 37° C. and 5% CO₂. The cells were washed twice with PBS and detached with Accutase®.
Validation of the binding of recombinant nanobodies to cell-surface expressed FGFR4 was performed with Rh4-FR4 wt and Rh4-FR4ko cells by flow cytometry. A FITC-labeled anti-6×His-tag antibody was used to detect surface-bound nanobodies.

Test [3] has as its target T3, Recombinant FGFR4 (G&P Biosciences) (human, UniProt P22455 22-369).
T3 construct: Bought protein; the SPR method says only 'Recombinant; also called rFGFR4; extracellular FGFR4
T3 sequence: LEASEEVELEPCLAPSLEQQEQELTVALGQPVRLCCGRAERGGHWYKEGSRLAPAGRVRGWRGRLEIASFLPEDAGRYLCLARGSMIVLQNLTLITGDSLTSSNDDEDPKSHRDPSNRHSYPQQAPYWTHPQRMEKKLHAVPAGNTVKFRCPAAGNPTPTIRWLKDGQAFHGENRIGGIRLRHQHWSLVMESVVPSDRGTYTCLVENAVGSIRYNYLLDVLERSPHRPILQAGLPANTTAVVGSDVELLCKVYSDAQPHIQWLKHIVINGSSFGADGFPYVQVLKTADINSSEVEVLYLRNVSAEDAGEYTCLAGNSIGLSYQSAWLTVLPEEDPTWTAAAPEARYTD
The test is described as follows: SPR (BIAcore T200), single cycle kinetics, FGFR4 amine-immobilised, nanobody as analyte, heterogeneous ligand model, component 2 (kon2). Here is the method: FIG. 3: Affinity determination of nanobodies to recombinant protein via surface plasmon resonance spectroscopy. Single cycle kinetics analysis was performed on immobilized FGFR4 through covalent amine binding on the dextran based sensor chip. The analytes A8, B1, B5, F8 and mCh were injected in 5 different concentrations followed by a dissociation phase. A final dissociation step was added after the last injection step to determine Koff rates for the KD calculations. The black curves represent the measured data and red curves show the fit analysis (heterogeneous ligand model) performed with the BIAevaluation software.
as §1
To determine the binding affinity of the nanobodies to FGFR4, we performed surface plasmon resonance (SPR) spectroscopy with recombinant FGFR4. As already mentioned above, FGFR1 and FGFR2 are expressed on Rh4-FR4ko cells and flow cytometry analysis indicated no binding of the nanobodies to the cells. To further confirm FGFR4-specificity, we included also affinity measurements with recombinant FGFR1, FGFR2 and FGFR3. Nanobodies A8, B1, B5, F8, and mCh were injected in five different concentrations on a FGFR coated chip.

B1: F8 nanobody (anti-FGFR4 sdAb, Gimli library) (VHH)
VHH: EVQLVESGGGLVQPGGSLRLSCAASGTGYALDDMGWVRQAPGKGLEWVSAISDDESMADYYADSVKGRFTISRDNSKNTVYLQMNSLRAEDTAVYYCASYKEYKYQSGHHYFAYRGQGTLVTVSS
notes: Recombinant nanobody of about 17 kDa; also called F8 sdAb; not shown: C-terminal Myc/6xHis-tag and an additional cysteine
In the case of B1, the binding result in test [1] was “no binding”. In test [2], the “median fluorescence intensity (MFI)” value is roughly 400 MFI. In test [3], the kon was determined as 1.35e+06 M⁻¹ s⁻¹.

B2: B1 nanobody (anti-FGFR4 sdAb, NaLi-H1 library) (VHH)
VHH: EVQLQASGGGFVQPGGSLRLSCAASGYTSRSSAMGWFRQAPGKEREFVSAISDLTGYPYYYADSVKGRFTISRDNSKNTVYLQMNSLRAEDTATYYCAAYQDDKWTYGSQHGKYWGQGTQVTVSS
notes: also called B1 sdAb; not shown: C-terminal Myc/6xHis-tag and an additional cysteine
With B2, the binding result in test [1] is given as “no binding”. Further, the “median fluorescence intensity (MFI)” value in test [2] is roughly 400 MFI. For the same molecule, in test [3], the kon came out at 216000 M⁻¹ s⁻¹.

B3: B5 nanobody (anti-FGFR4 sdAb, NaLi-H1 library) (VHH)
VHH: EVQLQASGGGFVQPGGSLRLSCAASGRTSWLTTMGWFRQAPGKEREFVSAISSFSSKQGYYADSVKGRFTISRDNSKNTVYLQMNSLRAEDTATYYCAYASYPRHQGNGRWKDFVEYWGQGTQVTVSS
notes: Recombinant nanobody of about 17 kDa; also called B5 sdAb; not shown: C-terminal Myc/6xHis-tag and an additional cysteine
Regarding B3, in test [1], the binding result is listed as “no binding”. The “median fluorescence intensity (MFI)” value in test [2] is roughly 400 MFI. In test [3], the on-rate (kon) stood at 173000 M⁻¹ s⁻¹.

B4: A8 nanobody (anti-FGFR4 sdAb, NaLi-H1 library) (VHH)
VHH: EVQLQASGGGFVQPGGSLRLSCAASGRTYSRDTMGWFRQAPGKEREFVSAISSRHSHTTYYADSVKGRFTISRDNSKNTVYLQMNSLRAEDTATYYCAEWDVFDMHYALPPMWYWGQGTQVTVSS
notes: also called A8 sdAb; not shown: C-terminal Myc/6xHis-tag and an additional cysteine
Turning to B4, in test [1], the binding result is “no binding”. The “median fluorescence intensity (MFI)” value in test [2] was roughly 400 MFI. Moreover, the association rate constant (kon) in test [3] was 66700 M⁻¹ s⁻¹.
